This note sets out measurements from publication PMC8479633.

The target of assay [1] is SMAD2 linker-MH2 construct, non-phosphorylated (S2LMH2). The assay can be described thus: SAXS with ensemble optimisation.
Assay [2] deals with phosphomimetic full-length SMAD2 (S2FLEEE) (UniProt Q15796). The assay can be described thus: SAXS with ensemble optimisation.

phosphomimetic full-length SMAD2 (S2FLEEE) (from UniProt Q15796 1-467) (natural protein), sequence (Q15796 whole entry): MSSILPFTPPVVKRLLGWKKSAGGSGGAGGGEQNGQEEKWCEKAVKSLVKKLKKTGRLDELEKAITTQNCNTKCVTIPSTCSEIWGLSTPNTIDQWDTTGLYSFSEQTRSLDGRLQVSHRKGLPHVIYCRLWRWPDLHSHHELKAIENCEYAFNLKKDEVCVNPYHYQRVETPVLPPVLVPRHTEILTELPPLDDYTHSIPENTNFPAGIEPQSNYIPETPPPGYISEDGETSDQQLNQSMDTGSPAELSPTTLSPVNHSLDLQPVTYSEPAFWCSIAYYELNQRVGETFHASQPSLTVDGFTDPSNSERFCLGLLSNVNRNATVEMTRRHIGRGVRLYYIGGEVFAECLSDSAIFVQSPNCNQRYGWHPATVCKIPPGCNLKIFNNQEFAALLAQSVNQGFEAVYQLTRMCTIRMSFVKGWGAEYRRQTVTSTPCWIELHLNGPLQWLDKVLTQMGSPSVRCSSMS
SMAD2 linker-MH2 construct, non-phosphorylated (S2LMH2) (domain or fragment), sequence (Q15796 269-467): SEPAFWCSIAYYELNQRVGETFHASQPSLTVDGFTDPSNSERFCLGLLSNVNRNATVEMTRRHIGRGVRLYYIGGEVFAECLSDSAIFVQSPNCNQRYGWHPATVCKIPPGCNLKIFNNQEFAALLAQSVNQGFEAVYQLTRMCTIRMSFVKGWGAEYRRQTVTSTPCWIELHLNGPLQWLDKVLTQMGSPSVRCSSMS

“SMAD2 linker-MH2 construct, non-phosphorylated (S2LMH2) (domain or fragment)” gave a percent of the population as dimer in assay [1] of 25%.

In assay [2], “phosphomimetic full-length SMAD2 (S2FLEEE) (from UniProt Q15796 1-467) (natural protein)” returned a percent of the population as dimer of 36% and a percent of the population as trimer of 44.8%.
